Values of other authors in US8021659B2, “Coenzyme Q10, lactoferrin and angiogenin compositions and uses thereof” (Naidu LP, priority 2006, dated 2011).

How the values were obtained:
osteoblasts = conditions: up to

B1: LF: 79-kDa glycoprotein present in every mucosal secretion of the human body; metal-transport protein (protein, UniProt P02788 20-710, looked up)
Lactotransferrin: GRRRSVQWCAVSQPEATKCFQWQRNMRKVRGPPVSCIKRDSPIQCIQAIAENRADAVTLDGGFIYEAGLAPYKLRPVAAEVYGTERQPRTHYYAVAVVKKGGSFQLNELQGLKSCHTGLRRTAGWNVPIGTLRPFLNWTGPPEPIEAAVARFFSASCVPGADKGQFPNLCRLCAGTGENKCAFSSQEPYFSYSGAFKCLRDGAGDVAFIRESTVFEDLSDEAERDEYELLCPDNTRKPVDKFKDCHLARVPSHAVVARSVNGKEDAIWNLLRQAQEKFGKDKSPKFQLFGSPSGQKDLLFKDSAIGFSRVPPRIDSGLYLGSGYFTAIQNLRKSEEEVAARRARVVWCAVGEQELRKCNQWSGLSEGSVTCSSASTTEDCIALVLKGEADAMSLDGGYVYTAGKCGLVPVLAENYKSQQSSDPDPNCVDRPVEGYLAVAVVRRSDTSLTWNSVKGKKSCHTAVDRTAGWNIPMGLLFNQTGSCKFDEYFSQSCAPGSDPRSNLCALCIGDEQGENKCVPNSNERYYGYTGAFRCLAENAGDVAFVKDVTVLQNTDGNNNEAWAKDLKLADFALLCLDGKRKPVTEARSCHLAMAPNHAVVSRMDKVERLKQVLLHQQAKFGRNGSDCPDKFCLFQSETKNLLFNDNTECLARLHGKTTYEKYLGPQYVAGITNLKKCSTSPLLEACEFLRK
reduction of the rate at which osteoblasts die (osteoblasts): 50-70% | time to peak level in plasma (absorption in the intestinal tract): ≤ 2 h | mean fractional catabolic rate (elimination from the plasma by liver and spleen): 5.7 day⁻¹
